Test results reported in US20190033318A1 (UNIVERSITY OF SOUTHAMPTON, published 2019).
Starred links: 1 amine or outer side, 2 acyl side, 3 side chain; linkers in the order of their positions; H or OH if unused. Non-standard residues stand in square brackets, D forms with d. Tyr(Me) = 4-methoxyphenylalanine (O-methyl-tyrosine), COc1ccc(C[C@H](N[*:1])C(=O)[*:2])cc1; FITC‑maleimide = fluorescein isothiocyanate-maleimide label on the cysteine; Tyr(3-NO2) = N[C@@H](Cc1ccc(O)c([N+](=O)[O-])c1)C(=O)O; Phe(4-NO2) = N[C@@H](Cc1ccc([N+](=O)[O-])cc1)C(=O)O; Phe(4-CN) = N#Cc1ccc(C[C@H](N)C(=O)O)cc1; Phe(4-Cl) = N[C@@H](Cc1ccc(Cl)cc1)C(=O)O; Phe(4-F) = N[C@@H](Cc1ccc(F)cc1)C(=O)O; Phe(4-Me) = Cc1ccc(C[C@H](N)C(=O)O)cc1; Cha = N[C@@H](CC1CCCCC1)C(=O)O; Pal = not defined here

B1: CRAIIF (peptide)
peptide: CRAIIF
notes: also called alanine scan peptide of CRVIIF, position 3 (V to A)
B2: cyclo-CRLLIF (SEQ ID NO 3) (peptide)
peptide: CRLLIF
modifications: cyclic peptide (cyclo-, first amino acid joined to the last)
notes: One of the 4 cyclic peptide hits of the SICLOPPS screen; made by solid phase synthesis; also called CRLLIX where X = F
B3: CRLLI(4-MeO-F) (peptide)
peptide: cyclo(CRLLI[Tyr(Me)])
SMILES: CC[C@H](C)[C@@H]1NC(=O)[C@H](CC(C)C)NC(=O)[C@H](CC(C)C)NC(=O)[C@H](CCCNC(=N)N)NC(=O)[C@H](CS)NC(=O)[C@H](Cc2ccc(OC)cc2)NC1=O
notes: also called CRLLIX where X = 4-MeO-F
B4: CRLLI(3-NO2-Y) (peptide)
peptide: cyclo(CRLLI[Tyr(3-NO2)])
SMILES: CC[C@H](C)[C@@H]1NC(=O)[C@H](CC(C)C)NC(=O)[C@H](CC(C)C)NC(=O)[C@H](CCCNC(=N)N)NC(=O)[C@H](CS)NC(=O)[C@H](Cc2ccc(O)c([N+](=O)[O-])c2)NC1=O
notes: also called CRLLIX where X = 3-NO2-Y

Assays:
[1] = molecular target: T1, 1α PASB (HIF-1α PASB domain, 238-349) (UniProt Q16665 238-349, labelled with NT-647-NHS dye in MST); test: MST, HIF-1α PASB domain
T1 construct: range 238-349; not shown: His6 tag of vector pET28, then Met

[2] = molecular target: T2, 2α PASB (HIF-2α PASB domain, 240-350) (UniProt Q99814 240-350, labelled with NT-647-NHS dye in MST; 15N (and 13C 15N) labelled in NMR); test: MST, HIF-2α PASB domain
T2 construct: range 240-350; also called PAS B domain of HIF-2α; not shown: His6 tag of vector pET28, then Met
T2 sequence (Q99814 240-350): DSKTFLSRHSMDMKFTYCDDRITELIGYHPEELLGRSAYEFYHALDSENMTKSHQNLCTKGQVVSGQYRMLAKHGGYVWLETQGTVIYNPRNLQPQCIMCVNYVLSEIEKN

[3] = molecular target: T3, HIF-1α (construct not given) (UniProt Q16665 1-350, limits assumed); test: HIF-1 ELISA, inhibition of HIF-1α/HIF-1β dimerisation
T3 construct: also called HIF-1 ELISA
Experimental: (§1) 25 μL of His-tagged HIF-α protein (either Trx-1α, Trx-2α, 1α PASB, or 2α PASB) at 0.1 μM in HIF assay buffer were added to individual wells of a Pierce Ni²⁺-coated 96-well plate (Thermo) in triplicate. The plate was rocked gently at room temperature for 1 hr, before washing with 3×200 μL assay buffer (5 min incubation per wash). 25 μL of compounds and/or DMSO at the stated concentrations were added to the plate and allowed to equilibrate for 30 min prior to the addition of 25 μL of GST-1β at 0.2 μM in assay buffer for 1 hr. For conditions in which no compound or DMSO were used, GST-1β was added as a 0.1 μM solution. After incubation with GST-1β, the wells were washed with 3×200 μL assay buffer then 1×200 μL PBS. The wells were then incubated with 100 μL mouse α-GST antibody (Thermo, MS-707-P) at a 1/1000 dilution in PBS supplemented with 0.1% Tween-20 (PBST) and 2% non-fat powdered milk (Marvel) for 1 hr, followed by 3×200 μL washed with PBS. 100 μL of secondary HRP-conjugated α-mouse antibody (GE Healthcare) was added at a 1/6000 dilution in 2% milk/PBST for 1 hr, then washed with 3×200 μL PBS. Wells were incubated with 100 μL of 1-Step Ultra TMB-ELISA solution (Thermo) until a blue colour developed (typically 10-15 min) and the reaction was stopped by the addition of 100 μL of a ⅕ dilution of conc. H₂SO₄, which turned the solution yellow. Absorbance was read at 450 nm using a Tecan Infinite M200 Pro plate reader. Data were fitted and IC₅₀ values determined by non-linear regression using GraphPad Prism 6.

[4] = molecular target: T4, HIF-2α (construct not given) (UniProt Q99814 1-360, limits assumed); test: HIF-2 ELISA, inhibition of HIF-2α/HIF-1β dimerisation
T4 construct: also called HIF-2 ELISA
T4 sequence (Q99814 1-360 limits assumed): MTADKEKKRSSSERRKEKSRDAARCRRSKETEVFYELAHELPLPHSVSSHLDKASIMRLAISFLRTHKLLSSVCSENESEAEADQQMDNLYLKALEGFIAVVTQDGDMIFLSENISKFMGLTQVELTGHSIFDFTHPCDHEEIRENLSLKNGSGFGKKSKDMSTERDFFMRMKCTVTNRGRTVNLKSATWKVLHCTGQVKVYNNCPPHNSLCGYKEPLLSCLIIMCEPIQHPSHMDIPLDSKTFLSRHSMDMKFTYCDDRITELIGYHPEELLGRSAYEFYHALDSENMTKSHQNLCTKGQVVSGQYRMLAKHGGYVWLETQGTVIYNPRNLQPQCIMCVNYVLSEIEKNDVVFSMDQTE
Experimental: as §1

[5] = molecular target: T2, 2α PASB (HIF-2α PASB domain, 240-350); test: MST, peptide titrated into labelled PAS-B domain of HIF-2α
[6] = molecular target: T1, 1α PASB (HIF-1α PASB domain, 238-349); test: competition ELISA: 1α PASB on Ni plate, peptide titrated, blocked partner GST-1β; the value stands in the panel without a name, the ELISA fits give IC50; the fall is only partial
Experimental: as §1, with “Wells were incubated with 100 μL of 1-Step Ultra TMB-ELISA solution (Thermo) until a blue colour developed (typically 10-15 min) and the reaction was stopped by the addition of 100 μL of a ⅕ dilution of conc. H₂SO₄, which turned the solution yellow.” left out

[7] = molecular target: T1, 1α PASB (HIF-1α PASB domain, 238-349); test: MST, peptide titrated into labelled PAS-B domain of HIF-1α
[8] = molecular target: T4, HIF-2α (construct not stated at the …); test: HIF-2 ELISA, inhibition of HIF-2α/HIF-1β dimerisation; remark: listed apart in the source
[9] = molecular target: T5, Trx-1α (thioredoxin-tagged HIF-1α 1-350, bHLH-PASA-PASB) (UniProt Q16665 1-350); test: thermal shift assay, 1 mM peptide
T5 construct: range 1-350; not shown: Thioredoxin-His6 tag of vector pET32
Experimental: (§2) Thermal denaturation of HIF proteins was performed in 20 μL reactions in triplicate using a Bio-Rad CFX Connect Real-Time System. Proteins were used at either 5 μM (Trx-1α, Trx-2α and GST-1β) or 15 μM (His-tagged PASB domains) in HIF assay buffer, with 10 mM DTT and SYPRO orange dye (Life Technologies) at a final concentration of 8×(relative to 5000×stock), and supplemented with either DMSO or compound dissolved in DMSO at the stated concentrations. The reaction plate was assembled on ice, then transferred to the pre-chilled thermal cycler, held at 10° C. for 5 min (heated lid, 105° C.), then the temperature ramped to 95° C. Fluorescence was recorded at 0.5° C. increments, holding for 5 sec at each temperature. Data were plotted using GraphPad Prism 6, and melting temperatures calculated using the first derivative method in which the peak (i.e. the steepest transition between data points) represents the point at which 50% of the protein sample is denatured. Errors are quoted as the inherent error associated with the first derivative of the data, i.e. ±0.25° C. for Tₘ values and ±0.5° C. for ΔTₘ values.

[10] = molecular target: T6, Trx-2α (thioredoxin-tagged HIF-2α 1-360, bHLH-PASA-PASB) (UniProt Q99814 1-360); test: thermal shift assay, 1 mM peptide
T6 construct: range 1-360; not shown: Thioredoxin-His6 tag of vector pET32
T6 sequence (Q99814 1-360): as the sequence (Q99814 1-360 limits assumed) above
Experimental: as §2

[11] = molecular target: T1, 1α PASB (HIF-1α PASB domain, 238-349); test: thermal shift assay, 1 mM peptide
Experimental: as §2

[12] = molecular target: T2, 2α PASB (HIF-2α PASB domain, 240-350); test: thermal shift assay, 1 mM peptide
Experimental: as §2

[13] = molecular target: T7, 1β PASB (HIF-1β PASB domain, 356-474) (UniProt P27540 356-474); test: thermal shift assay, 1 mM peptide
T7 construct: range 356-474; not shown: His6 tag of vector pET28
T7 sequence (P27540 356-474): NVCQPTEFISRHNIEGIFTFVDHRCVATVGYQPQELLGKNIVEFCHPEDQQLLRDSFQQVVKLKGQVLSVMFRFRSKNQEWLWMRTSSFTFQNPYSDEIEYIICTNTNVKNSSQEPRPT
Experimental: as §2

[14] = molecular target: T1, 1α PASB (HIF-1α PASB domain, 238-349); test: MST, peptide titrated into fluorescently labelled 1α PASB
Experimental: (§3) Microscale thermophoresis (MST) was performed to determine Kd of peptide binding to fluorescently labelled HIF-1α/2α PASB domains.
(§4) 0.5 mL of 1α or 2α PASB protein stocks in HIF storage/assay buffer were dialysed against 1 L of MST labelling buffer (100 mM NaHCO₃ pH 8, 150 mM NaCl and 5% glycerol) for 1.5 hr at 4° C., then against 1 L of fresh labelling buffer at 4° C. overnight. 100 μL of each dialysed protein diluted to 10 μM were incubated with 100 μL of 30 μM NT-647-NHS dye (NanoTemper protein labelling kit) for 20 min in the dark, then exchanged into 650 μL HIF assay buffer supplemented with 0.05% Tween-20 using the supplied gravity flow purification columns. A dilution series of cyclo-CRVIIF (SEQ ID NO 4) or alanine scan analogues (in HIF assay buffer, 10% DMSO) was mixed with equal volumes of labelled 1α PASB or 2α PASB at 100 nM and allowed to equilibrate for 10 min. Samples were loaded into hydrophilic capillaries and, after optimising the power, MST was performed using a Monolith […] instrument (NanoTemper). Data were analysed using NT Analysis Software using the Temperature Jump analysis mode.

[15] = molecular target: T2, 2α PASB (HIF-2α PASB domain, 240-350); test: MST, peptide titrated into fluorescently labelled 2α PASB
Experimental: as §3, §4

[16] = molecular target: T5, Trx-1α (thioredoxin-tagged HIF-1α …); test: competition ELISA: His-tagged Trx-1α on Ni plate, peptide titrated, binding of GST-1β (blocked partner) detected with anti-GST, A450
Experimental: (§5) IC₅₀ values for the compound=3.7 μM/8.8 μM for 1α/2α.
as §1, with “Wells were incubated with 100 μL of 1-Step Ultra TMB-ELISA solution (Thermo) until a blue colour developed (typically 10-15 min) and the reaction was stopped by the addition of 100 μL of a ⅕ dilution of conc. H₂SO₄, which turned the solution yellow.” left out

[17] = molecular target: T6, Trx-2α (thioredoxin-tagged HIF-2α …); test: competition ELISA: His-tagged Trx-2α on Ni plate, peptide titrated, binding of GST-1β (blocked partner) detected with anti-GST, A450
Experimental: as §5
as §1, with “Wells were incubated with 100 μL of 1-Step Ultra TMB-ELISA solution (Thermo) until a blue colour developed (typically 10-15 min) and the reaction was stopped by the addition of 100 μL of a ⅕ dilution of conc. H₂SO₄, which turned the solution yellow.” left out

Binder | Kd [1] [µM] | Kd [2] [µM] | IC50 [3] [µM] | IC50 [4] [µM] | other results
cyclo(CRLLI[Phe(4-F)]) (also called CRLLIX where X = 4-F-F) [CRLLI(4-F-F)] | 6.84 | 7.41 | 37.5 | 11.5 | –
cyclo(CRLLI[Phe(4-Cl)]) (also called CRLLIX where X = 4-Cl-F) [CRLLI(4-Cl-F)] | 2.8 | 4.15 | 13.2 | 4.88 | Kd [5]: 4.2 µM
cyclo(CRLLI[Pal]) (not fully specified; printed as CRLLI(Pal); reading uncertain, also called CRLLIX where X = Pal) [CRLLI(Pal)] | 69.2 | 45.3 | 294 | 212 | –
cyclo(CRLLI[Phe(4-CN)]) (also called CRLLIX where X = 4-CN-F) [CRLLI(4-CN-F)] | 10 | 9.46 | 44.2 | 6.27 | –
B1 | – | – | – | – | IC50 [6]: 51 µM
cyclo(CRLLI[Phe(4-Me)]) (also called CRLLIX where X = 4-Me-F) [CRLLI(4-Me-F)] | 9.61 | 5.27 | 11.9 | 6.07 | Kd [7]: 11.4 µM; Kd [5]: 5.4 µM
cyclo(CRLLI[Cha]) (also called CRLLIX where X = Cha) [CRLLI(Cha)] | 1.37 | 5.63 | 25.5 | 19.8 | Kd [7]: 4.1 µM; Kd [5]: 5.8 µM
cyclo(CRLLI[Phe(4-NO2)]) (also called CRLLIX where X = 4-NO2-F) [CRLLI(4-NO2-F)] | 3.73 | 5.76 | 27.8 | 12 | –
cyclo(C(FITC‑maleimide)KLIIF) [FITC-CKLIIF (SEQ ID NO 2)] | – | – | – | – | Activity as measured by a HIF-2 ELISA [8]: 0.77 µM
B2 | 36.9 | 15.4 | 71.3 | 98.3 | ΔTm [9]: 0.5 ° C.; ΔTm [10]: -4 ° C.; ΔTm [11]: -2 ° C.; ΔTm [12]: -4 ° C.; ΔTm [13]: -1 ° C.; Kd [14]: 13.5 µM; Kd [15]: 59.6 µM; IC50 [16]: 102 µM; IC50 [17]: 186 µM
CRLLIW (cyclic analogue of cyclo-CRLLIF) | 7.7 | 9.6 | – | – | –
SGWEMIQRR (cyclic peptide (first amino acid joined to the last), One of the 4 cyclic peptide hits) [cyclo-SGWEMIQRR (SEQ ID NO 5)] | – | – | – | – | ΔTm [9]: -2.5 ° C.; ΔTm [13]: -0.5 ° C.
cyclo(C(FITC‑maleimide)RLLIF) [FITC-CRLLIF (SEQ ID NO 3)] | – | – | – | – | Activity as measured by a HIF-2 ELISA [8]: 0.47 µM
B3 | 10.8 | 4.5 | 36.7 | 15.3 | –
B4 | 90.7 | 49 | 19.5 | 22.7 | –
